# Assay results: PMC6740198 (Molecular Biology of the Cell, 2019)
# Assays:
# [1] = molecular target: CD4-AChR β subunit MA loop chimera (UniProt P09690 333-469); experiment: co-IP
# [2] = molecular target: acetylcholine receptor (AChR) (mouse (endogenous in C2C12 myotubes and mouse muscle)) (UniProt P04756); experiment: pull-down
binder,measurement,setting,value
"Flag-vezatin (natural protein, UniProt Q3ZK22 1-780, looked up) MTPEFDEEVVFENSPLYQYLQDLGHTDFEICSSSSPKPEKCLTTEGPQPPPTRVLQRQGILLKLTETIKSWTFSSQHSKKDDLLHKLDTGFRLDSLHTILQQEVLLQEDVELLELLDASILSAGQPQQESGHLPTLCSLATPNTWDVSLLFAFISLLIMFPTCWIVSSWLVWGIILFLYLIIRVLKLWRTAKLQMTLKKYRVRLEDMAANSRAFTNLVRKSLRLIQETEVISRGFTLVSAACSFNKAAQHPGQHLIGLRKAVYRTVRANFQAARLATLYMLKNYPLNSESDNVTNYICVVPFKELGLGLSEDQISEEEARNLTDGFSLPALKVLFQLWVAQSSEFFRRLALLLSTANSPSGPLLTAALLPHHILCDVTQGLPHAHSACLDELKRSYEFFRYFETQHQSVPQRLSKTPQKSRELSNVHTAVRSLQLHLKALLNEVIILEDELEKLVCTKETQELLSEAYPILEQKLKLIEPHVQASNSCWEEAISQVDKLLRRNTDKKGKPGVACENPHCTAEPLVRPALHIEDRDPIPEEQELEAYVDDIDIESEFRKDDFYHLSQEDRERQKREQEESRRVLQELKSVLGFKASEAERQKWKQLLFSDHAVLTSLSPVDPVESVSNSEPPMNSDTEKVNSNATEEETSKPCAGDKEDSRTEYVCDSPTEGPSKDTSADTGLLLPGAEETMCHQHESEAKSPQAAAAGATAPPTPRDTLQLSIKQRLARLQLPPEFTFSAGLAAEVAARSLSFTTMQEQTFGDEEEEQLVEGGENEVEEK",fold reduction of association when rapsyn-HA is coexpressed,[1],4 fold
same,fold increase in association in rapsn−/− against rapsn+/− muscle,[2],1.8 fold
same,fold increase in association with agrin treatment (against untreated myotubes),[2],1.6 fold
